Results: IntAct's records for PubMed 19726565

B1: Inositol phosphorylceramide synthase regulatory subunit KEI1 (Saccharomyces cerevisiae), Q06346 (parent)
chain: MRSSLLTLPKSFLGFMPLYLAVEIVLGISILNKCSGAYGILALFTGHPLDFMQWIAYLWSVFTLIVFSQGLYLIHKPNLLVFSQICVLYTIDTISTCFFTLWFTTQWFTLEDTANIDGNNALQSNPISTGKLTERGIDISKQSATESYEYTMTILITLVSLIFRFYFNFILASFVQELLHHPKYLVDRDDVEQNLKNKPIWKRLWAKSQKGCYKLCKNLLE
partner: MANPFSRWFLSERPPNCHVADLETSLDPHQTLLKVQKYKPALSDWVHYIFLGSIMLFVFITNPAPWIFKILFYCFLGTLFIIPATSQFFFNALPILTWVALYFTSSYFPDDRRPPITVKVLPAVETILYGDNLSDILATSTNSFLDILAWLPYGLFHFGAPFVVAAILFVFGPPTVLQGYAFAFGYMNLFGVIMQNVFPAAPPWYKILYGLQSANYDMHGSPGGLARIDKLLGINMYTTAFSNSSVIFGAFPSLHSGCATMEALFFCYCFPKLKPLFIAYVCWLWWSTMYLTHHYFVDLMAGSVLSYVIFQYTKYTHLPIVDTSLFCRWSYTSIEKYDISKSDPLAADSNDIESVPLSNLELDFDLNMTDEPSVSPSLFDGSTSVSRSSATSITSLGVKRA

Variants of: B1
Conditions: with aur1_yeast AUR1, P36107

Variant	effect of a mutation on the interaction
MRSSLLTLPKSFLGFMPLYLAVEIVLGISILNKCSGAYGILALFTGHPLDFMQWIAYLWSVFTLIVFSQGLYLIHKPNLLVFSQICVLYTIDTISTCFFTLWITTQWFTLEDTANIDGNNALQSNPISTGKLTERGIDISKQSATESYEYTMTILITLVSLIFRFYFNFILASFVQELLHHPKYLVDRDDVEQNLKNKPIWKRLWAKSQKGCYKLCKNLLE [F103I]	disrupting interaction strength
